According to article PMC11098746 (2024):

B1: ADP334 (protein)
chain: MASGRDERPPWRLGRLLLLMCLLLLGSSARAAHIKKAEATTTTTSAGAEAAEGQFDRYYHEEELESALREAAAAGLPGLARLFSIGRSVEGRPLWVLRLTAGLGSLIPEGDAGPDAAGPDAAGPLLPGRPQVKLVGNMHGDETVSRQVLIYLARELAAGYRRGDPRLVRLLNTTDVYLLPSLNPDGFERAREGDCGFGDGGPSGASGRDNSRGRDLNRSFPDQFSTGEPPALDEVPEVRALIEWIRRNKFVLSGNLHGGSVVASYPFDDSPEHKATGIYSKTSDDEVFKYLAKAYASNHPIMKTGEPHCPGDEDETFKDGITNGAHWYDVEGGMQDYNYVWANCFEITLELSCCKYPPASQLRQEWENNRESLITLIEKVHIGVKGFVKDSITGSGLENATISVAGINHNITTGRFGDFYRLLVPGTYNLTVVLTGYMPLTVTNVVVKEGPATEVDFSLRPTVTSVIPDTTEAVSTASTVAIPNILSGTSSSYQPIQPKDFHHHHFPDMEIFLRRFANEYPNITRLYSLGKSVESRELYVMEISDNPGVHEPGEPEFKYIGNMHGNEVVGRELLLNLIEYLCKNFGTDPEVTDLVHNTRIHLMPSMNPDGYEKSQEGDSISVIGRNNSNNFDLNRNFPDQFVQITDPTQPETIAVMSWMKSYPFVLSANLHGGSLVVNYPFDDDEQGLATYSKSPDDAVFQQIALSYSKENSQMFQGRPCKNMYPNEYFPHGITNGASWYNVPGGMQDWNYLQTNCFEVTIELGCVKYPLEKELPNFWEQNRRSLIQFMKQVHQGVRGFVLDATDGRGILNATISVAEINHPVTTYKTGDYWRLLVPGTYKITASARGYNPVTKNVTVKSEGAIQVNFTLVRSSTDSNNESKKGKGASSSTNDASDPTTKEFETLIKDLSAENGLESLMLRSSSNLALALYRYHSYKDLSEFLRGLVMNYPHITNLTNLGQSTEYRHIWSLEISNKPNVSEPEEPKIRFVAGIHGNAPVGTELLLALAEFLCLNYKKNPAVTQLVDRTRIVIVPSLNPDGRERAQEKDCTSKIGQTNARGKDLDTDFTNNASQPETKAIIENLIQKQDFSLSVALDGGSMLVTYPYDKPVQTVENKETLKHLASLYANNHPSMHMGQPSCPNKSDENIPGGVMRGAEWHSHLGSMKDYSVTYGHCPEITVYTSCCYFPSAARLPSLWADNKRSLLSMLVEVHKGVHGFVKDKTGKPISKAVIVLNEGIKVQTKEGGYFHVLLAPGVHNIIAIADGYQQQHSQVFVHHDAASSVVIVFDTDNRIFGLP
modifications: bait human Fc-tagged dimer
B2: ADP395 (protein)
chain: FVNKDQIAKDVKQFYDQALQQAVVDDDANNAKAVVKTFHETLDCCGSSTLTALTTSVLKNNLCPSGSNIISNLFKEDCHQKIDDLFSGK
modifications: bait human Fc-tagged dimer
B3: ADP319 (protein)
chain: MVSSGCRMRSLWFIIVISFLPNTEGFSRAALPFGLVRRELSCEGYSIDLRCPGSDVIMIESANYGRTDDKICDADPFQMENTDCYLPDAFKIMTQRCNNRTQCIVVTGSDVFPDPCPGTYKYLEVQYECVPYIFVCPGTLKAIVDSPCIYEAEQKAGAWCKDPLQAADKIYFMPWTPYRTDTLIEYASLEDFQNSRQTTTYKLPNRVDGTGFVVYDGAVFFNKERTRNIVKFDLRTRIKSGEAIINYANYHDTSPYRWGGKTDIDLAVDENGLWVIYATEQNNGMIVISQLNPYTLRFEATWETVYDKRAASNAFMICGVLYVVRSVYQDNESETGKNSIDYIYNTRLNRGEYVDVPFPNQYQYIAAVDYNPRDNQLYVWNNNFILRYSLEFGPPDPAQVPTTAVTITSSAELFKTIISTTSTTSQKGPMSTTVAGSQEGSKGTKPPPAVSTTKIPPITNIFPLPERFCEALDSKGIKWPQTQRGMMVERPCPKGTRGTASYLCMISTGTWNPKGPDLSNCTSHWVNQLAQKIRSGENAASLANELAKHTKGPVFAGDVSSSVRLMEQLVDILDAQLQELKPSEKDSAGRSYNKLQKREKTCRAYLKAIVDTVDNLLRPEALESWKHMNSSEQAHTATMLLDTLEEGAFVLADNLLEPTRVSMPTENIVLEVAVLSTEGQIQDFKFPLGIKGAGSSIQLSANTVKQNSRNGLAKLVFIIYRSLGQFLSTENATIKLGADFIGRNSTIAVNSHVISVSINKESSRVYLTDPVLFTLPHIDPDNYFNANCSFWNYSERTMMGYWSTQGCKLVDTNKTRTTCACSHL
modifications: bait human Fc-tagged dimer
B4: ADP293 (protein)
chain: MALLPRLLLLLLLVFPATVLFRGGPRGLLAVAQDLTEDEETVEDSIIEDEDDEAEVEEDEPTDLVEDKEEEDVSGEPEASPSADTTILFVKGEDFPANNIVKFLVGFTNKGTEDFIVESLDASFRYPQDYQFYIQNFTALPLNTVVPPQRQATFEYSFIPAEPMGGRPFGLVINLNYKDLNGNVFQDAVFNQTVTVIEREDGLDGET
modifications: bait human Fc-tagged dimer
B5: ADP270 (protein)
chain: ALSPKCLDWWQEGPMYQIYPRSFKDSNKDGNGDLKGIQDKLDYITALNIKTVWITSFYKSSLKDFRYGVEDFREVDPIFGTMEDFENLVAAIHDKGLKLIIDFIPNHTSDKHIWFQLSRTRTGKYTDYYIWHDCTHENGKTIPPNNWLSVYGNSSWHFDEVRNQCYFHQFMKEQPDLNFRNPDVQEEIKEILRFWLTKGVDGFSLDAVKFLLEAKHLRDEIQVNKTQIPDTVTQYSELYHDFTTTQVGMHDIVRSFRQTMDQYSTEPGRYRFMGTEAYAESIDRTVMYYGLPFIQEADFPFNNYLSMLDTVSGNSVYEVITSWMENMPEGKWPNWMIGGPDSSRLTSRLGNQYVNVMNMLLFTLPGTPITYYGEEIGMGNIVAANLNESYDINTLRSKSPMQWDNSSNAGFSEASNTWLPTNSDYHTVNVDVQKTQPRSALKLYQDLSLLHANELLLNRGWFCHLRNDSHYVVYTRELDGIDRIFIVVLNFGESTLLNLHNMISGLPAKMRIRLSTNSADKGSKVDTSGIFLDKGEGLIFEHNTKNLLHRQTAFRDRCFVSNRACYSSVLNILYTSC
modifications: bait human Fc-tagged dimer
B6: ADP299 (protein)
chain: MDLRQFLMCLSLCTAFALSKPTEKKDRVHHEPQLSDKVHNDAQSFDYDHDAFLGAEEAKTFDQLTPEESKERLGKIVSKIDGDKDGFVTVDELKDWIKFAQKRWIYEDVERQWKGHDLNEDGLVSWEEYKNATYGYVLDDPDPDDGFNYKQMMVRDERRFKMADKDGDLIATKEEFTAFLHPEEYDYMKDIVVQETMEDIDKNADGFIDLEEYIGDMYSHDGNTDEPEWVKTEREQFVEFRDKNRDGKMDKEETKDWILPSDYDHAEAEARHLVYESDQNKDGKLTKEEIVDKYDLFVGSQATDFGEALVRHDEF
modifications: bait human Fc-tagged dimer
B7: ADP111 (protein)
chain: MVLLRVLILLLSWAAGMGGQYGNPLNKYIRHYEGLSYNVDSLHQKHQRAKRAVSHEDQFLRLDFHAHGRHFNLRMKRDTSLFSDEFKVETSNKVLDYDTSHIYTGHIYGEEGSFSHGSVIDGRFEGFIQTRGGTFYVEPAERYIKDRTLPFHSVIYHEDDINYPHKYGPQGGCADHSVFERMRKYQMTGVEEVTQIPQEEHAANGPELLRKKRTTSAEKNTCQLYIQTDHLFFKYYGTREAVIAQISSHVKAIDTIYQTTDFSGIRNISFMVKRIRINTTADEKDPTNPFRFPNIGVEKFLELNSEQNHDDYCLAYVFTDRDFDDGVLGLAWVGAPSGSSGGICEKSKLYSDGKKKSLNTGIITVQNYGSHVPPKVSHITFAHEVGHNFGSPHDSGTECTPGESKNLGQKENGNYIMYARATSGDKLNNNKFSLCSIRNISQVLEKKRNNCFVESGQPICGNGMVEQGEECDCGYSDQCKDECCFDANQPEGRKCKLKPGKQCSPSQGPCCTAQCAFKSKSEKCRDDSDCAREGICNGFTALCPASDPKPNFTDCNRHTQVCINGQCAGSICEKYGLEECTCASSDGKDDKELCHVCCMKKMDPSTCASTGSVQWSRHFSGRTITLQPGSPCNDFRGYCDVFMRCRLVDADGPLARLKKAIFSPELYENIAEW
modifications: bait human Fc-tagged dimer
B8: ADP292 (protein)
chain: MARPGSAQRWAAVAGRWGCRLLALLLLVPGPGGASEITFELPDNAKQCFYEDIAQGTKCTLEFQVITGGHYDVDCRLEDPDGKVLYKEMKKQYDSFTFTASKNGTYKFCFSNEFSTFTHKTVYFDFQVGEDPPLFPSENRVSALTQMESACVSIHEALKSVIDYQTHFRLREAQGRSRAEDLNTRVA
modifications: bait human Fc-tagged dimer

These binders were tested against Circumsporozoite protein (CSP) (Plasmodium falciparum (isolate 3D7), UniProt Q7K740) (assay: AVEXIS screen signal:noise (double-corrected)).
Circumsporozoite protein (CSP), sequence (Q7K740 19-374): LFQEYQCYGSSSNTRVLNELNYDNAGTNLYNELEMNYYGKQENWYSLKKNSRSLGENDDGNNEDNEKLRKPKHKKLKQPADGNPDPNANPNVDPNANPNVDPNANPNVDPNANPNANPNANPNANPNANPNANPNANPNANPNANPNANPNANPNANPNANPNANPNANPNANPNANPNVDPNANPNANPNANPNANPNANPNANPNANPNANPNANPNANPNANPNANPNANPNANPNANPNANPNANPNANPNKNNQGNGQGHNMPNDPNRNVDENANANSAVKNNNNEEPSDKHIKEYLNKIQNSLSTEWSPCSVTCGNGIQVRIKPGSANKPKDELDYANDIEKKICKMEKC

**Q.** Which binding score does the source give for B1 here?
**A.** The binding score was 1.2.

**Q.** How did the binding score turn out when B2 was run?
**A.** The binding score was 1.84.

**Q.** How did the binding score turn out when B3 was run?
**A.** Its binding score is 1.9.

**Q.** B4 was tested. Which binding score did it give?
**A.** The binding score was 1.28.

**Q.** How did the binding score turn out when B5 was run?
**A.** The binding score was 7.97.

**Q.** B6 was tested. Which binding score did it give?
**A.** The binding score was 1.11.

**Q.** How did the binding score turn out when B7 was run?
**A.** The binding score was 0.777.

**Q.** B8 was tested. Which binding score did it give?
**A.** The binding score was 1.08.
